Test results taken from patent US5508261, “Analogs of glycoprotein hormones having altered receptor binding specificity and activity and methods for preparing and using same” (University of Medicine & Dentistry of New Jersey, dated 1996).

B1: Analog "Q" (ligand)
chain 1: not shown
chain 2: SKEPLRPRCRPINATLAVEKEGCPVCITVNITICAGYCPTMTRVLQGVLPALPQVVCNYRDVRFESIRLPGCPRGVNPVVSYAVALSCQCALCDSDSTDCGGPKDHPSYCSFGE
B2: Analog "GT" (ligand)
chain 1: not shown
chain 2: SKEPLRPRCRPINATLAVEKEGCPVCITVNITICAGYCPTMTRVLQGVLPALPQVVCNYRDVRFESIRLPGCPRGVNPVVSYAVALSCQCALCRRSTTDCIHEAIKTNYCTKPQKSY
B3: recombinant hCG (ligand)
chain 1: not shown
chain 2: SKEPLRPRCRPINATLAVEKEGCPVCITVNITICAGYCPTMTRVLQGVLPALPQVVCNYRDVRFESIRLPGCPRGVNPVVSYAVALSCQCALCRRSTTDCGGPKDHPLTCDDPRFQDSSSSKAPPPSLPSPSRLPGPSDTPILPQ
B4: recombinant hFSH (ligand)
chain 1: not shown
chain 2: NSCELTNITIAIEKEECRFCISINITWCAGYCYTRDLVYKDPARPKIQKTCTFKELVYETVRVPGCAHHADSLYTYPVALQCHCGKCDSDSTDCTVRGLGPSYCSFGEMKE
B5: Analog "D" (ligand)
chain 1: not shown
chain 2: SKEPLRPRCRPINATLAVEKEGCPVCITVNITICAGYCPTMTRVLQGVLPALPQVVCNYRDVRFESIRLPGCPRGVNPVVSYAVALSCQCALCDSDSTDCGGPKDHPLTCDDPRFQDSSSSKAPPPSLPSPSRLPGPSDTPILPQ

What was measured:
[1] = target: T1, bovine testes FSH receptors (bovine, UniProt P35376); test: inhibition of 125I-hFSH binding to bovine testes FSH receptors
Procedure: (§1) The concentrations of the analogs were determined by sandwich immunoassay using antibodies B105 and A113. The term "N.D." means not determined because concentrations of analog were not employed high enough to detect 50% inhibition.

[2] = target: rat luteal ovarian LH receptors (rat, UniProt P16235); test: inhibition of 125I-hCG binding to rat luteal ovarian LH receptors
Procedure: as §1
An aliquot of the ligation mixture was taken and used to transform DH5-alpha strain E. coli. (obtained from Bethesda Research Laboratories, Gaithersburg, Md.). Plasmid DNAs from ampicillin-resistant DH5-alpha clones were screened by digestion with BglII (which is unique to vectors containing the cassette) and EcoRI (which cuts in the vector). Positive clones were identified by the presence of two fragments (approximately 0.8 Kbp and 2.9 Kbp). […] The remainder of the beta-subunit cDNA (encoding hCGβ amino acids 1–87) was restored by ligation of the 2.3 Kbp PvuI-PvuII fragment of this vector and the 2.9 Kbp PvuI-PvuII fragment from pSVL-hCG-beta'. […] After the DNA was subjected to a dideoxy sequencing procedure to confirm that it encoded "GT" (Table 1), the plasmid DNA was then cotransfected into COS-7 cells (obtained from the American Type Culture Collection) along with pSVL-hCG-alpha, a pSVL-based plasmid encoding the human glycoprotein hormone alpha-subunit (10, 21), using a DEAE-dextran procedure (10).

[3] = target: T1, bovine testes FSH receptors; test: inhibition of 125I-hFSH binding to bovine testes FSH receptors (N.D. in Table 3)

| binding result [1] | activity relative to hCG (LH RECEPTORS; ratio of concentrations for 50% inhibition) [2] | binding result [3] | binding result [2] | Binder |
| --- | --- | --- | --- | --- |
| no binding | 0.15 relative to recombinant hCG |  |  | B1 |
|  | 0.33 relative to recombinant hCG | no binding |  | B2 |
| no binding |  |  |  | B3 |
|  |  |  | no binding | B4 |
|  |  | no binding |  | B5 |
